{"source": "paper PMC10501185", "target": "Lymphocytic choriomeningitis virus RING finger Z matrix protein (Lymphocytic choriomeningitis virus (LCMV)) (UniProt P18541)", "sequence (P18541 whole entry)": "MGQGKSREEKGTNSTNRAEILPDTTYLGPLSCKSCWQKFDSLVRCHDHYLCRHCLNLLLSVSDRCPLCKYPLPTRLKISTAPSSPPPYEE", "assay": "cryo-EM structure"}
{"substance": "Lymphocytic choriomeningitis virus large polymerase (L), P14240 1-2210", "values": [{"measurement": "stoichiometry N", "result": 1}]}
